Results from patent US7888090B2, “Mutants of O6-alkylguanine-DNA alkyltransferase” (Ecole Polytechnique Federale de Lausanne, priority 2004, dated 2011).

What was measured:
[1] = Reactivity towards N^9-modified O^6-benzylguanine derivatives (preblocking, BG-Cy3 assay); format: biochemical; conditions: 100 µM N^9-isobutyl-, N^9-propyl-, N^9-cyanomethyl-O^6-benzylguanine, 15 min
Protocol: FIG. 3: Reactivity of AGT mutants with N^9-modified BG derivatives. 10 µM AGTM (grey bars) or PGEG-hAGT (black bars) were preblocked with 100 µM N^9-modified BG derivatives (see list below), and subsequently labeled with 20 µM BG-Cy3. After 1 h reaction time, fluorescence intensity (FI) indicated in arbitrary units [a.u.] at 595 nm is measured. The black bold line is set at the reading for condition 1 corresponding to background fluorescence of the fluorophore not attached to protein. Values above this line indicate slow or incomplete reaction with N^9-modified BG-derivative. • 1 Fluorescence of BG-Cy3 without protein; background fluorescence. • 2 Reaction with BG-Cy3; no preblocking, positive control. • 3 Reaction with BG-Cy3, preblocked with 100 µM BG. • 4 Reaction with BG-Cy3, preblocked with 100 µM N^9-isobutyl-O^6-benzylguanine. • 5 Reaction with BG-Cy3, preblocked with 100 µM N^9-propyl-O^6-benzylguanine. • 6 Reaction with BG-Cy3, preblocked with 100 µM N^9-cyanomethyl-O^6-benzylguanine.
Reactivity of AGT towards N^9-modified O^6-benzylguanine derivatives: The experiment is based on the BG-Cy3 assay. Upon reaction of AGT with BG-Cy3, an increase of fluorescence emission intensity of Cy3 by a factor 2-3 can be observed. […]

[2] = tested on: oligonucleotide SEQ ID NO:2 (modified in position 14); assay: Reactivity against DNA-based substrates (BG-Cy3 assay with BG-modified oligonucleotide); format: biochemical; conditions: 0.5 µM (or more) BG-modified oligonucleotide
Protocol: The ability of wild type AGT or mutant AGT to react with alkylated DNA substrates is measured as the reaction of its inactivation by a synthetic oligonucleotide containing O^6-benzylguanine (SEQ ID NO:2, modified in position 14). Subsequently, the reactions are quenched by incubation with biotinylated O^6-alkylguanine. Samples are subjected to Western blotting and detection with streptavidin derivates to obtain kinetic constants for these substrates. Alternatively, the ability of wild type or mutant AGT to react with alkylated DNA substrates is measured via its labeling efficiency in competition with a fluorescent substrate of AGT. The reaction kinetics of AGT with BG-Cy3 (O^6-benzylguanine coupled to Cy3) is followed by fluorescence intensity measurements at various concentrations of a competing synthetic oligonucleotide containing O^6-benzylguanine (SEQ ID NO:2, modified in position 14).
Reactivity against DNA-based substrates measured with a BG-Cy3 assay: BG-Cy3 is prepared by reacting the previously described O^6-(4-aminomethyl-benzyl)guanine (Keppler et al., NatureBiotechnol. 21:86-89, 2003) with the commercially available N-hydroxysuccinimide ester of Cy3, (Cy3-NHS, Amersham). The coupling reaction is performed at ambient temperature in N,N-dimethylformamide in the presence of 1 eq. of triethylamine. The BG-Cy3 conjugate is purified by reversed-phase HPLC on a C18-column by using linear gradients from 0.1% trifluoroacetic acid to acetonitrile. After solvent evaporation BG-Cy3 is dissolved in dimethyl sulfoxide and stored at −20° C. For measuring the reactivity with DNA-based substrates, a reaction mixture containing different concentrations (0 to 5 µM) of oligonucleotide SEQ ID NO:2 (modified in position 14), GST-AGT fusion protein at 0.2 µM and BG-Cy3 at […] in reaction buffer (50 mM HEPES, pH 7.2, 1 mM DTT, 200 mg/ml BSA) is incubated in microtiterplates. Fluorescence of the Cy3 derivative (excitation 519 nm, emission at 572 nm) is measured on a Spectramax Gemini plate reader (Molecular Devices).

salmon sperm DNA = assay: DNA binding as inhibition by DNA of the reaction with BG-Cy3; conditions: salmon sperm DNA 25 µg/ml
Protocol: (§1) The interaction with DNA is e.g. quantified by assessing the amount of copurified DNA from E. coli extracts under conditions of low salt and absence of DNase. This is compared between parallel purifications of fusion proteins (e.g. fusions to GST) of wild type (human) and mutant AGT by spectroscopic methods (ratio of absorbance at 260 and 280 nm). Alternatively the interaction of AGT with DNA is measured as the inhibition of AGT reactivity with BG-Cy3 (O^6-(4-aminomethyl-benzyl)-guanine coupled to Cy3) as substrate in the presence of DNA. This approach takes advantage of a marked increase of fluorescence of the Cy3 fluorophore upon reaction of BG-Cy3 with AGT. The reaction kinetics of AGT with a Cy3-labeled benzylguanine derivative is followed by fluorescence intensity measurements over several hours at various concentrations of salmon sperm DNA.
DNA binding: DNA binding is measured as inhibition by DNA of the reaction of AGT mutants with BG derivatives. The reaction rate of AGT mutants in a reaction mixture containing salmon sperm DNA (25 µg/ml) instead of oligonucleotide is measured with the BG-Cy3 assay. The reaction rate is determined by fitting the obtained data to a monoexponential increase to maximum.

[3] = compared to wild type hAGT; literature; cited from earlier work
CHO cells = assay: Selective labelling in cells after CPTG pre-incubation; format: cell-based; conditions: 5 µM CPTG 10 min, then 5 µM fluorescent substance 4 20 min
From the text: In a further experiment, the mutant AGTM as described in Example 6 is amplified with the primers SEQ ID NO:34 and SEQ ID NO:36 and cloned between the NheI and BgIII sites of the vector pEGFP-Nuc. The […]-galactosidase gene is amplified with the primers SEQ ID NO:37 and SEQ ID NO:38 and subcloned into this vector via BgIII/BamHI to result in a vector with an AGTM-[…]-Gal fusion gene. The hAGT gene is amplified by the principle described under Example 1 with the primers SEQ ID NO:39, SEQ ID NO:40, SEQ ID NO:34, and SEQ ID NO:35 and cloned via NheI/BgIII into pEGFP-Nuc to result in an AGT-NLS3 fusion gene coding for the mutation Gly160Trp. After transient expression of both AGT mutants in parallel, the cells are incubated with 5 µM CPTG for 10 min and subsequently with 5 µM of substance 4 of Juillerat et al., Chem Biol 10:313-317, 2003, for 20 min. The cells are washed and imaged as described under Example 1.

[4] = Activity assay with biotinylated O^6-benzylguanine (BG-Bt), Western blotting; format: biochemical; conditions: statement in words
In short: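 Purified mutant GST-AGT (0.2 μM) reacted with 1 μM biotinylated O^6-benzylguanine in 50 mM HEPES pH 7.2, 1 mM DTT at room temperature. Time-point aliquots quenched with O^6-benzylguanine in SDS buffer. Biotinylated protein detected by Western blot with neutravidin-peroxidase, band intensity quantified.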

DNA = DNA binding in vitro (co-purified DNA, UV spectroscopy); set-up: species or system E. coli; conditions: co-purified DNA; compared to wild type hAGT or PGEG-hAGT
Protocol: as §1
For comparing the DNA binding properties of the protein in vitro, the harvested cells are resuspended, and the GST fusion protein is purified following the same method but in a buffer containing 50 mM phosphate, 0.1 M NaCl, 1 mM DTT. In the dialysed samples, the amount of subsequently co-purified DNA is estimated by UV spectroscopy. Spectra are recorded using a Perkin Elmer Lambda 10. The content of DNA corresponds to the ratio of the extinctions at 280 and 260 nm. […]

[5] = Stability after reaction with BG-FL; format: physicochemical; conditions: over 7 days
Protocol: Stability before reaction is determined for the mutant AGT or for a mutant AGT fusion protein by incubating purified samples in buffered aqueous solution for up to two weeks at 4° C. and up to six months at −20° C. At several time points, aliquots are taken and concentration of reactive AGT is estimated as described by Juillerat et al., Chem Biol 10:313-317, 2003. Stability for wild type AGT and the AGT mutant after reaction with a labelled substrate and after subsequent separation from unreacted substrate is determined by quantifying the concentration of the label in the soluble fraction over up to two weeks at 4° C. and up to three months at −20° C.
Stability after reaction: The vector pBAD/H is A (Invitrogen) is modified by cloning synthetic oligonucleotides (SEQ ID NO:29 and SEQ ID NO:30) between the NcoI and HindIII sites to include a 12×His-tag and SbfI and AscI cloning sites. The gene of AGTM is amplified with primers SEQ ID NO:31 and SEQ ID NO:32 and cloned between the SbfI/AscI sites into this vector. Wild type AGT and mutant AGT (Lys125Ala, Ala127Thr, Arg128Ala, Asn157Gly, Ser159Glu) are amplified with primers SEQ ID NO:31 and SEQ ID NO:33 and cloned into this vector. Protein expression is carried out in E. coli strain Top 10. An exponentially growing culture is induced with 0.2% arabinose, and the expression is carried out for 16 hours at 28° C. The cells are lysed by adding buffer to 10 ml/g containing 0.5 M NaCl, 80 mM imidazole, 1% Triton, 250 µM PMSF, 1 mM […]-mercaptoethanol, 5 mg/ml lysozyme, 20 µg/ml DNase and stirring for 45 min. […]
The AGT proteins at 10 µM) are quantitatively reacted with fluorescein-modified O^6-benzyl-guanine (substance 5 of Juillerat et al, Chem Biol 10:313-317, 2003, BG-FL, 20 µM) and purified over a size exclusion column (Econopac 10 DG, Bio-Rad) and incubated for 7 days. […] The fluorescence of the supernatant is measured with a Victor2 fluorescence plate reader (Perkin Elmer, excitation/emission at 485/535 nm).

| Molecule | extent of reaction with N^9-modified BG derivatives [1] | activity in presence of BG-modified oligonucleotide [2] | reduction of reaction rate to BG-Cy3 in presence of DNA (salmon sperm DNA) [fold] | activity against benzylguanine derivatives (factor) [3] | reaction with CPTG inside cells (CHO cells) | activity towards O^6-benzylguanine substrates [4] | DNA binding (DNA) | loss of soluble fluorescent protein [5] |
| --- | --- | --- | --- | --- | --- | --- | --- | --- |
| PGEG-hAGT: an AGT containing the mutations Asn157Gly, Ser159Glu (Juillerat et al., Chem Biol 10:313-317, 2003) (protein, UniProt P16455 1-207, looked up, variant N157G S159E) Methylated-DNA--protein-cystei …: MDKDCEMKRTTLDSPLGKLELSGCEQGLHEIKLLGKGTSAADAVEVPAPAAVLGGPEPLMQCTAWLNAYFHQPEAIEEFPVPALHHPVFQQESFTRQVLWKLLKVVKFGEVISYQQLAALAGNPKAARAVGGAMRGNPVPILIPCHRVVCSSGAVGGYEGGLAVKEWLLAHEGHRLGKPGLGGSSGLAGAWLKGAGATSGSPPAGRN | reacts efficiently | less than 3% | 5 | approximately 20 |  |  |  |  |
| AGT (Gly160Trp): Human AGT mutant Gly160Trp (Xu-Welliver et al.); expressed as AGT-NLS3 fusion (protein, UniProt P16455 1-207, looked up, variant G160W, NLS3 fusion) Methylated-DNA--protein-cystei …: MDKDCEMKRTTLDSPLGKLELSGCEQGLHEIKLLGKGTSAADAVEVPAPAAVLGGPEPLMQCTAWLNAYFHQPEAIEEFPVPALHHPVFQQESFTRQVLWKLLKVVKFGEVISYQQLAALAGNPKAARAVGGAMRGNPVPILIPCHRVVCSSGAVGNYSWGLAVKEWLLAHEGHRLGKPGLGGSSGLAGAWLKGAGATSGSPPAGRN |  |  |  | somewhat more reactive | efficiently reacts with CPTG inside cells |  |  |  |
| Lys125Ala, Ala127Thr, Arg128Ala, Asn157Gly, Ser159Glu: hAGT mutant with the listed mutations, expressed as GST fusion (protein, UniProt P16455 1-207, looked up, variant K125A A127T R128A N157G S159E, GST fusion) Methylated-DNA--protein-cystei …: MDKDCEMKRTTLDSPLGKLELSGCEQGLHEIKLLGKGTSAADAVEVPAPAAVLGGPEPLMQCTAWLNAYFHQPEAIEEFPVPALHHPVFQQESFTRQVLWKLLKVVKFGEVISYQQLAALAGNPAATAAVGGAMRGNPVPILIPCHRVVCSSGAVGGYEGGLAVKEWLLAHEGHRLGKPGLGGSSGLAGAWLKGAGATSGSPPAGRN |  |  |  |  |  | retains activity | at least ten times reduced DNA binding | about 60% |
